From publication PMC5938751

Key:
[1] = tested on: N[C@@H](CCC(=O)NP(=O)(O)O)C(=O)O; assay: purified protein; conditions: fixed 5.0 mM MgCTP, pH 8.0, 25 °C
[2] = tested on: Nc1ccn([C@@H]2O[C@H](COP(=O)(O)OP(=O)(O)NC(=O)CC[C@H](N)C(=O)O)[C@@H](O)[C@H]2O)c(=O)n1; assay: purified protein; conditions: pH 8.0, 25 °C

Substance	Km [1]	kcat [1]	Km [2]	kcat [2]
Cj1416 (Campylobacter jejuni subsp. jejuni NCTC 11168 = ATCC 700819)	120 ± 30 µM	0.95 ± 0.1 s⁻¹		
Cj1417 (Campylobacter jejuni subsp. jejuni NCTC 11168 = ATCC 700819)			28 ± 3 µM	0.567 ± 0.02 s⁻¹
